Tests used:
Assay in all cases: MST; NT-647-NHS-labelled PP2A subunit at 20 nM as target, 12-point twofold dilution series of unlabelled ARPP as ligand; SEC buffer with 0.05% Tween-20; triplicate; single-site binding model
[1] = target: PP2A regulatory subunit B56γ
[2] = target: PP2A scaffolding subunit PR65α, full length (UniProt P30153)
[3] = target: PP2A regulatory subunit B56α
PP2A regulatory subunit B56α, sequence (Q15172 whole entry): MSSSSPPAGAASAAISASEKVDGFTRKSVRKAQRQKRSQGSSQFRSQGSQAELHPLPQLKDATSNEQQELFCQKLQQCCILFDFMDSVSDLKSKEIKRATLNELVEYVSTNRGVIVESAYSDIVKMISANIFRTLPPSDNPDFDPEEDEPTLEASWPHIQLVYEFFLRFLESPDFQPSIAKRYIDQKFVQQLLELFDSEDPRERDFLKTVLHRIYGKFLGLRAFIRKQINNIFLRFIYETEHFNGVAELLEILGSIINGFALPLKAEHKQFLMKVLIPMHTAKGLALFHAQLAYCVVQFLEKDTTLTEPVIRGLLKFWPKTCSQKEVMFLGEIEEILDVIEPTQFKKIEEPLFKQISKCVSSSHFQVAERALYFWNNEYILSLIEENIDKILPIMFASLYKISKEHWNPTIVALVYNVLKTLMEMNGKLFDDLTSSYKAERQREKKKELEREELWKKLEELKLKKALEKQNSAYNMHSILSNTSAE

PP2A scaffolding subunit PR65α, full length, sequence (P30153 whole entry): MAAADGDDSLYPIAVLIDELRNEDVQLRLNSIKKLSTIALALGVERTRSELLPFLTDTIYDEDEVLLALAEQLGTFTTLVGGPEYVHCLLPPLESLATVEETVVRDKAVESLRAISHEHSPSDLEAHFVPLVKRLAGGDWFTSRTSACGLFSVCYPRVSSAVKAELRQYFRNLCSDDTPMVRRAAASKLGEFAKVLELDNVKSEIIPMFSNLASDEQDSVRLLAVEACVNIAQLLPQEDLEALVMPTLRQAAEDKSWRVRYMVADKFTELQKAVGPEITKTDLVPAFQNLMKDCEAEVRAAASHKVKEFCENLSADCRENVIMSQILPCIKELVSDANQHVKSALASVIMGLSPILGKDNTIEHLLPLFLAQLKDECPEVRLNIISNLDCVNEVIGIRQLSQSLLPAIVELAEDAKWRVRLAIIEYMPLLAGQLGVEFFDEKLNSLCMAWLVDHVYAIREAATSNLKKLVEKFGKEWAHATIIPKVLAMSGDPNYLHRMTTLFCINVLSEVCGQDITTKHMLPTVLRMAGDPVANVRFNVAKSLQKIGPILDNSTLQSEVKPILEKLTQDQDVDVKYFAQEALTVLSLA
PP2A regulatory subunit B56γ, sequence (Q13362 whole entry): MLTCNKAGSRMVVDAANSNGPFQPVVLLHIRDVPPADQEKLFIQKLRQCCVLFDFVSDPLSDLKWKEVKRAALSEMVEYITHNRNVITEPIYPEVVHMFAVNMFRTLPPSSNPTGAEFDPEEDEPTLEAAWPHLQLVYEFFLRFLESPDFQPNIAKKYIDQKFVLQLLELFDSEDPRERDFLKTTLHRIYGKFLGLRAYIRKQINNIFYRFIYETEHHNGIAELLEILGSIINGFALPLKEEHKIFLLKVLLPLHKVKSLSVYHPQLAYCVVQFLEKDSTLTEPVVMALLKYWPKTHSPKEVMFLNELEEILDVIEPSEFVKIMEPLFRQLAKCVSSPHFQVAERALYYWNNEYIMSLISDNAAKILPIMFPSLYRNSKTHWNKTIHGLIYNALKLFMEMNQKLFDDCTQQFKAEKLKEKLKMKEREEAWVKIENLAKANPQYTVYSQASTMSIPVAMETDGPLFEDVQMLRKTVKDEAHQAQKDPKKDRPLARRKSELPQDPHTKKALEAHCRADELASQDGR

Substance | Kd [1] [µM] | Kd [2] [µM] | Kd [3] [µM]
ARPP-16 (splice variant of ARPP-19), wild type (natural protein) | 710 | 5.4 | 
ARPP-16 (splice variant of ARPP-19), wild type (natural protein; other documents disagree on this pair) |  |  | 80
ARPP-16 S46E phosphomimicking mutant (natural protein) | 440 | 1 | 
ARPP-16 S46E phosphomimicking mutant (natural protein; other documents disagree on this pair) |  |  | 110

More lines, now with the values ahead:

Kd [1] [µM] | Kd [2] [µM] | Kd [3] [µM] | Substance
200 | 3.3 |  | ARPP-16 S88E phosphomimicking mutant (natural protein)
 |  | 130 | ARPP-16 S88E phosphomimicking mutant (natural protein; other documents disagree on this pair)
